Reference: paper PMC6978714, “Protective Allele for Multiple Sclerosis HLA-DRB1*01:01 Provides Kinetic Discrimination of Myelin and Exogenous Antigenic Peptides” (Frontiers in Immunology, 2020)
No end group written: not given here.

What was measured:
[1] = biological target: T1, HLA-DRB1*15:01 (Homo sapiens, UniProt P01903+P01911); test: Peptide binding ELISA (L243 capture, streptavidin-peroxidase); conditions: thioredoxin-fused biotinylated MBP fragments 750 nM, HLA-DR 150 nM, overnight, 37°C
Protocol: DR/peptide complexes were then captured on the ELISA plate with immobilized L243 mAb (5 μg/ml in PBS) and blocked with 1% milk in PBS. HLA-DR-bound biotinylated peptide was quantitated with streptavidin-peroxidase (50 μl in PBST), using 3,3′,5,5′-tetramethylbenzidine (50 μl) as a substrate and stopping with 10% phosphoric acid (50 μl). ELISA was performed using standard protocol (https://www.abcam.com/protocols/sandwich-elisa-protocol).

[2] = biological target: T2, HLA-DRB1*01:01 (Homo sapiens, UniProt P01903+P01911, A100R/D57E/F55L/F60I/F76Y/I96L/L162R/M171V/P40L/Q125E/R42F/V115G/Y59C); test: as above; conditions: thioredoxin-fused biotinylated MBP fragments 750 nM, HLA-DR 150 nM, overnight, 37°C
[3] = biological target: T1, HLA-DRB1*15:01; test: Kinetic competition assay with Trx-[pp65]bio in presence of HLA-DM; type: binding; conditions: HLA-DRB1*15:01 150 nM, HLA-DM 150 nM, Trx-[pp65]bio 150 nM, competitor 0-1 μM
Protocol: (§1) In a competition assay, kinetic experiments were carried out as described above. Kinetics were measured in the presence of increasing concentrations (0, 30, 100, 300, and 1,000 nM) of thioredoxin-fused HA, pp65, MBP, or chimeric peptides at timepoints 8, 6, 4, 2, and 0 h. Thioredoxin without any peptide was used as a control. ELISA was performed as done previously. All experiments were carried out in triplicates.

[4] = biological target: T1, HLA-DRB1*15:01; test: Real-time ELISA kinetics of peptide loading (CLIP exchange) with or without HLA-DM; type: binding; conditions: thioredoxin-fused peptides 150 nM, HLA-DR 150 nM, HLA-DM 150 nM
Protocol: A real-time ELISA assay was used to assess kinetics of peptide exchange on HLA-DR, catalyzed by HLA-DM. The linker connecting the CLIP peptide to the N-terminus of the HLA-DR β chain was cut with thrombin (1 h, 20 U/mg, at room temperature). DR-CLIP complexes (150 nM) were incubated with or without HLA-DM (150 nM, which was estimated as minimal concentration for maximal rate, see Figure S1) in the presence of biotinylated either synthetic or thioredoxin-fused HA, pp65, MBP, and chimeric peptides (150 nM, which was experimentally estimated as minimal concentration required for reliable detection), for 7, 5, 3, 1, and 0 h. Each time point was mixed separately starting from the end of incubation time (7 h) every 2 h, afterwards all time points were loaded into the plate.

[5] = biological target: T1, HLA-DRB1*15:01; test: 18 h competition assay with Trx-[pp65]bio; type: binding; conditions: HLA-DRB1*15:01 150 nM, Trx-[pp65]bio 150 nM, competitor 7.8 nM-1 μM
Protocol: In a competition assay, biotinylated thioredoxin-fused HA and pp65 peptides (150 nM) were incubated with HLA-DR in the presence of HA, pp65, MBP or chimeric peptides (1,000, 500, 250, 125, 62.5, 31.2, 15.6, and 7.8 nM) for 18 h. Whole procedure was the same as described above.

[6] = biological target: T2, HLA-DRB1*01:01; test: Real-time ELISA kinetics of peptide loading (CLIP exchange) with or without HLA-DM; type: binding; conditions: thioredoxin-fused chimeric peptides with C-terminal part of MBP151-164 or MBP88-100, 150 nM, HLA-DR 150 nM, with or without HLA-DM 150 nM
[7] = biological target: T2, HLA-DRB1*01:01; test: Kinetic competition assay with Trx-[HA]bio in presence of HLA-DM; type: binding; conditions: HLA-DRB1*01:01 150 nM, HLA-DM 150 nM, Trx-[HA]bio 150 nM, competitor 0-1 μM, 0-8 h
Protocol: as §1

[8] = system: HLA-DR2; conditions: direct binding to purified molecules; cited from earlier work
Excerpt: (§2) MS therapeutic glatiramer acetate (GA) or Copaxone is a 40–100 amino acids polypeptide of a random sequence composed from alanine, lysine, glutamate, and tyrosine at a molar ratio of 4.5:3.6:1.5:1, respectively, that with high affinity binds directly to the purified HLA-DR1, -DR2, and -DR4 molecules ([45]). Combinatorial chemistry, which lays in the basis of GA, may result in assembling of multiple HLA class II epitopes, that at least in part may be not simply thermodynamically but rather kinetically preferable. Concluding our data provide novel vector of optimization of altered peptide ligand ...

[9] = system: HLA-DR1; conditions: direct binding to purified molecules; cited from earlier work
Excerpt: as §2

[10] = system: HLA-DR4; conditions: direct binding to purified molecules; cited from earlier work
Excerpt: as §2

MBP25−54: thioredoxin-fused MBP fragment of the MBP epitope library (ARHGFLPRHRDTGILDSIGRFFGGDRGAPK; not fully specified (N-terminus); also: fused to thioredoxin via (SGGGG)3S linker at N-terminus, His-tag, position not given here, biotinylated with Sulfo-NHS-LC-biotin, site not given here)
Binding of MBP epitope library to HLA-DRB1*15:01 [1]: significantly diminished efficiency

MBP65−92: thioredoxin-fused MBP fragment of the MBP epitope library ({thioredoxin-(SGGGG)3S}-ARTAHYGSLPQKSHGRTQDENPVVHFFK; also: biotin (EZ-Link Sulfo-NHS-LC-biotin), places not given here, His-tag, end not given here)
Binding of MBP epitope library to HLA-DRB1*01:01 [2]: less efficiently bound

MBP130−156: thioredoxin-fused MBP fragment of the MBP epitope library (GRASDYKSAHKGFKGVDAQGTLSKIFK; not fully specified (N-terminus); also: fused to thioredoxin via (SGGGG)3S linker at N-terminus, His-tag, position not given here, biotinylated with Sulfo-NHS-LC-biotin, site not given here)
Binding of MBP epitope library to HLA-DRB1*01:01 [2]: less efficiently bound | Binding of MBP epitope library to HLA-DRB1*15:01 [1]: significantly diminished efficiency

Trx-[MBP85−97]: thioredoxin-fused MBP85−97 (NPVVHFFKNIVTP; not fully specified (N-terminus); also: fused to thioredoxin via (SGGGG)3S linker at N-terminus, His-tag, position not given here, biotinylated with Sulfo-NHS-LC-biotin, site not given here)
Concentration from which binding of Trx-[pp65]bio was decreased [3]: 100 nM | Rate of loading on HLA-DRB1*15:01 with or without HLA-DM [4]: similarly high rate | Thermodynamic inhibition capacity in comparison with Trx-[pp65] and Trx-[pp65-MBP91-97] [5]: up to half of order of magnitude greater

Trx-[MBP88−100]: thioredoxin-fused MBP88−100 ({thioredoxin-(SGGGG)3S}-VHFFKNIVTPRTP; also: biotin (EZ-Link Sulfo-NHS-LC-biotin), places not given here, His-tag, end not given here)
Capable of efficiently binding HLA-DRB1*01:01 (kinetic assay) [6]: none

Trx-[MBP151−164]: thioredoxin-fused MBP151−164 ({thioredoxin-(SGGGG)3S}-LSKIFKLGGRDSRS; also: biotin (EZ-Link Sulfo-NHS-LC-biotin), places not given here, His-tag, end not given here)
Capable of efficiently binding HLA-DRB1*01:01 (kinetic assay) [6]: none | Concentration up to which the peptide failed to compete with Trx-[HA]bio [7]: > 1 µM

glatiramer acetate
Binding to purified HLA-DR2 [8]: high affinity | Binding to purified HLA-DR1 [9]: high affinity | Binding to purified HLA-DR4 [10]: high affinity
